Data: the supplement of paper PMC10567573

B1: NEK8 (parent)
chain: YTFGSNQHGQLGTNTRRGSRAPCK

Variants of: B1
Assay: protein stability index of a GFP-peptide fusion (GPS, HEK-293T) (PSI 1-6); higher = more stable
Details: c terminus: a fixed tail appended
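Note: lentivirally expressed fusions sorted by FACS into six bins by GFP to DsRed ratio, PSI derived from sequencing read proportions per bin multiplied by bin number.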

Protein stability index: each site, then its substitutions
R20: W 2.21; L 3.53; H 3.96; C 3.33; E 4.1; Y 3.07; A 4.07; T 3.86; F 2.85; M 3.15; N 4.05; Q 4.17; S 3.55; P 3.83; K 4.38; D 3.81; V 3.48; I 3.52; G 3.97
T15: C 3.56; R 3.98; F 3.56; L 3.7; M 4.09; E 4.17; W 3.49; P 3.6; Y 3.67; G 3.77; S 4.28; I 4.14; D 3.85; V 4.17; H 4.05; Q 4.25; N 3.82; A 3.9; K 3.94
R16: Y 3.37; M 3.63; F 2.57; V 3.99; T 4.21; K 3.67; C 3.36; W 1.8; D 4.05; P 3.94; N 4.02; G 4.24; S 3.85; H 4.25; E 3.63; A 3.81; L 3.82; I 3.56; Q 3.97
N6: K 3.44; H 3.75; Q 4.21; Y 3.48; L 3.29; P 4.07; S 3.86; F 2.61; D 4.24; T 3.54; V 3.75; R 4.18; C 3.78; E 4.44; I 3.6; M 3.44; G 3.52; A 3.94; W 3.06
Q7: L 2.28; G 4.07; H 3.84; I 3.45; Y 3.09; D 3.98; W 2.73; P 3.81; E 4.2; K 3.8; C 3.59; F 1.54; R 3.81; M 3.66; N 4.06; T 4.28; V 3.84; S 3.58; A 3.55
R17: V 3.66; S 3.81; E 4.07; P 3.75; N 3.97; K 3.73; I 3.51; Y 3.5; M 3.88; G 4.09; D 3.84; L 3.92; T 3.65; C 3.07; H 3.94; A 3.46; Q 4.02; F 3.18
S5: T 4.36; R 3.96; I 3.44; Q 4.01; F 2.23; Y 2.49; L 3.62; C 3.72; N 4.14; E 4.61; A 3.63; W 2.67; D 4.53; H 3.66; G 3.86; M 4.11; V 4.09; K 3.5; P 3.84
G18: A 3.33; F 2.85; V 3.46; W 3.23; L 3.77; I 3.61; K 4.05; R 3.95; T 4.08; Y 3.26; M 3.47; H 3.52; N 3.81; D 3.94; S 3.43; E 3.69; P 3.53; Q 3.27; C 3.48
T13: D 4.44; L 3.58; G 4.43; E 4.37; K 3.79; A 4.44; W 3.22; H 4.35; P 4.45; V 3.67; R 4.11; S 4.3; N 4.06; I 3.15; Y 3.62; Q 4.35; C 3.13; M 3.72; F 3.31
S19: D 4.18; F 3.03; E 3.72; I 3.33; V 3.77; P 3.89; G 3.91; Q 4.02; K 3.77; L 3.82; H 3.95; A 3.95; Y 3.52; N 3.86; M 4.05; R 3.91; W 2.8; C 3.08; T 3.81
G12: C 3.71; M 3.84; V 4.11; Q 3.93; R 4.11; T 4.32; W 2.73; F 3.09; D 4.68; L 4.15; E 4.19; A 4.36; N 4.18; P 4.43; S 3.97; H 4.37; Y 3.83; K 3.98; I 3.79
N14: D 4.35; V 2.06; G 3.49; R 3.88; W 3.21; M 3.44; L 3.51; E 3.69; I 2.73; C 2.29; S 3.88; K 3.88; Q 3.69; F 3.71; P 3.77; H 4.07; Y 3.63; T 2.98; A 3.38
H8: N 3.99; A 3.98; D 4.15; R 3.92; C 3.94; L 3.37; W 2.36; Q 3.92; I 3.48; V 4.01; F 3.23; M 3.75; Y 3.36; T 3.87; E 4.47; G 3.61; P 3.97; K 4; S 3.77
L11: Q 4.49; A 4.38; H 4.23; E 4.53; G 4.53; C 4.02; K 3.56; M 4.01; S 4.94; Y 3.95; V 4.1; F 3.76; N 4.3; D 4.49; R 4.65; P 4.22; W 3.22; T 4.43; I 3.93
G4: R 4.36; P 4.19; T 3.54; Y 3.42; K 3.6; F 3.64; L 3.99; Q 4.04; E 4.33; H 3.91; W 2.91; N 3.82; V 4.2; I 3.72; S 3.66; M 3.44
G9: K 4.12; R 3.94; Y 2.23; H 4.16; W 2.16; V 2.78; N 3.98; Q 3.94; T 3.82; A 3.39; F 2.1; P 3.38; L 3.19; I 3.05; M 3.19; D 4.11; E 3.98; S 4.15; C 3.48
Q10: L 3.36; C 3.36; D 4.45; H 3.89; G 4.08; I 3.47; Y 3.52; R 3.82; N 3.83; E 4.33; P 4; A 4.21; W 1.52; K 3.41; S 3.58; T 4.32; V 3.31; M 3.58; F 3.33
A21: Q 3.89; L 3.54; G 3.7; S 3.84; H 3.79; K 4.24; P 3.69; D 4.11; E 4.32; I 3.69; C 2.94; F 3.54; M 3.5; N 4.1; R 3.53
